Measurements reported in the RNAGym collection of RNA variant scans (doi:10.1073/pnas.2313332121).

B1: TPR t1 (parent)
chain: GACCAAUCUGCCCUCAGAGCUCGAGAACAUCUUCGGAUGCAGAGGAGGCAGGCUUCGGUGGCGCGAUAGCGCCAACGUCCUCAACCUCCAAUGCAUCCCACCACAUGAUGAUGCCUGAAGAGCCUUGGUUUUUUG

Variants of: B1
Experiment: polymerase ribozyme fitness, log enrichment relative to wild type (log ratio); higher = more active; in vitro selection for triplet polymerase activity
In short: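 After PCR construction and transcription, each subunit's mutant library from a heterodimeric triplet polymerase ribozyme was annealed with a biotinylated primer, the partner subunit and triplets. Incubation was frozen, at −7 °C, and extended constructs were gel-excised, bound to streptavidin beads and amplified by RT-PCR, in one selection round done in triplicate. Fitness is the logarithm of a genotype's enrichment divided by that of the wild type, from inverse-variance-weighted replicate averages of Illumina-sequenced inputs and outputs. The base of the logarithm is 2, and genotypes needed ≥10 input reads and ≥1 read per output.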
For GAUCAAUCUGCCCUCAGAGCUCGAGAACAUCUUCGGAUGCAGAGGAGGCAGGGUUCGGUGGCGCGAUAGCGCCAACGUCCUCAACCUACAAUGCAUCCCACCACAUGAUGAGGCCUGAAGAGCCUUGGAUUUUUG, the “polymerase ribozyme fitness (log ratio)” value was -2.53. For GAUCAAUCUGCCUUCAGAGCUCGAGAACAUCUUCGGAUGCAGAGGAGGCAGGCUUCGGAGGCGCGAUAGCGCCAACGUCCUCAACCUCCAAUGCAUCCCACCACAUGAUGAUGCCUGAAGAGCCUUGGUUUUUUG, the “polymerase ribozyme fitness (log ratio)” value was -0.207. With GAUCAAUCUGCCGUCAGAGCUCGAGAACAUCUUCGGAUGCAGAGGAGGCAGGCUUCGGUGGCGCGAUAGCGCCAACGUCCUCAACCUCCUAUGCAUCCCACCACAUGAUGAUGCCUGAAGAGCCUUGGUUUUUUG the “polymerase ribozyme fitness (log ratio)” value was -1.11. For GAUCAAUCUGCCCUCAGAGCUCGAGAACAUCUUAGGAUGCAGAGGAGGCAGGAUUCGGUGGCGCGAUAGCGCCAACGUUCUCAACCUUCAAUGCAUUCCACCACAUGAUGAUGCCUGAAGAGCCUUGGUUUUUUG, the “polymerase ribozyme fitness (log ratio)” value was -2.66. With GAUCAAUCUGCCCUCAGAGCUCGAGAACAUCUUCGGAUGCAGAGGAGGAAGGCUUCGGUGGCACGAUAGCGCCAACGUCUUCAACCUCCAAUACAUCCCACCACAUGAUGAUGCCUGAAGAGCCUUGGUUUUUUG the “polymerase ribozyme fitness (log ratio)” value was -5.66. With GAUCAAUCUGCCCUCAGAGCUCGAGAACAUCUUCGGAUGCAGAGGAGGCCGGCUUCGGUGGCGCGAUAGCGCCCACGUCCUCAACCUCCAAUGCAGCCCACCACAUGAUGAUGCCUGAAGAGCCUUGGUUUUUUG the “polymerase ribozyme fitness (log ratio)” value was -1.84. In the case of GAUCAAUCUGCCCUAAGAGCUCGAGAACAUCUUCGGAUGCAGAGGAGGCAGCCUUCGGUGGCGCGAUAGCGCCAACGUCCUCAACCUCCAAUGCAUCCCACCACAUGAUGAUGCCUGAAGAGCCUUGGUUUUUUG, the “polymerase ribozyme fitness (log ratio)” value is reported as -3.65. For GAUCAAUGUUCCCUCAGAGCUCGAGAACAUCUUCGGAUGCAGAGCAGGCAGGCUUCGGUGGCGCGAUAGCUCCAACGUCCUCAAACUCCAAUGCAUCCCACCACAUGAUGAUGCCUGAAGAGCCUUGGUUUUUUG, the “polymerase ribozyme fitness (log ratio)” value was -2.2. For GAUCAAUCUGCCCUCAGAGCUCGAGAACAUCUUCGGAUGCGGAGGAGGCAGGCUUCGGUGGCGCGAUAGCGCCAACGUCCUCAACCUCCAAUGCAUCCCACAACAUGAUGAUGCCUGAAAAGCCUUGGUUUUUUG, the “polymerase ribozyme fitness (log ratio)” value was -3.46. For GAUCAAUCUGCCCUCAGAGCUCGAGAACAUCUUAGGAUGCAGAGGAGGCAGGCUUCGGUGGCGCGAUAGCGCAAACGUCCUCAACCUCCAAUGCAUCCCACCACAUGAUGAUGCCUGAAGAGCCUUGGUUUUUUG, the “polymerase ribozyme fitness (log ratio)” value was -2.99. In the case of GAUCAAUCUGCCCUCAGAGCUCGAGAACAUCUUCGGAUGCAGAGGAGGCAGGAUUAGGUGGCGCGAUAUCGCCAACGUCCUCAACCUCCAAUGCAUCCCACCACAUGAUGAUGCCUGAAGAGCCUUGGUUUUUUG, the “polymerase ribozyme fitness (log ratio)” value is reported as -0.204. In the case of GAUAAAUCUGCCCUCAGAGCUCGAGAACAUCUUCGGAUGCAGAGGAGGCAGGGUUCGGUGGCGCGAUAGCGCCAACGUCCUCAACCUUCCAUGCAUCCCACCACAUGAUGAUGCCUGAAGAGACUUGGUCUUUUG, the “polymerase ribozyme fitness (log ratio)” value is reported as -0.356. In the case of GAUCAAUCUGUCCUCAGAGCUCGAGAACAUCUUCGGAUGCAGAGGAGACAGGCUUUGGUGGCGCGAUAGCGCCAACGUCCUCAACCUCGAAUGCAUCCCAUCACAUGAUGAUGCCUGAAGAGCCUUGGUUUUUUG, the “polymerase ribozyme fitness (log ratio)” value is reported as -3.51. For GAUCAAUCUGCCCUCAGAGCUCGAGAACAUCUUCGGAUGCAGAGGAGGCAGGCUUCGGUGGCGCGAUAGAGCCAACGCCCUCAACCUCCACUGCAUGCCACCACAUGAUGAUGCCUGAAGUGCCUUGGUUUUUUG, the “polymerase ribozyme fitness (log ratio)” value was -6.74. In the case of GAUCAAUCUGGACUCAGAGCUCGAGAACAUCUUCGGAUGCAGAGGAGGCUGGCUUGGGUGGCGCGAUAGCGCCAACGUCCUCUACCUCCAAUCCAUCCCACCACAUGAUGAUUCCUGAAGAGCCUUGGUUUUUUG, the “polymerase ribozyme fitness (log ratio)” value is reported as -5.9. In the case of GAUCAAUCUGCCCUCAGAGCUCGAGAACAUCUUCGGAUGCAGAGGAGGCAGGCUUUGGUGGCGCGAUACCGCCAAGGUCCUCAACCUCCAAUGCAUCCCACCACAUGAUGAUGCUUGAAGAGCCUUUGUUUUUUG, the “polymerase ribozyme fitness (log ratio)” value is reported as -4.79. In the case of GAUCAAUCUGCCCUCAGAGCUCGAGAACAUCUUCGGAUGUAGAGGAGGCAGGCUUCGGUUGCGCGAUAGCGCCAACGUCCUCAACCUCCAAUGCAUCCCACCACAUGAUGAUGCCUGAAGAGCCUUGGUUUUUUG, the “polymerase ribozyme fitness (log ratio)” value is reported as 0.0261. With GAUCAAUCUGCCCUCAGAGCUCGAGAACAUCUUCGGAUGCAGAGGAGGCGGGCUGCGGUGGCACGAUAGCGCCAACGUCCUCAACCUCCAAUGCAUCCCACCACAUGAUGAUGCCUGAAGAGCCUUGGUUUUUUG the “polymerase ribozyme fitness (log ratio)” value was -1.45. In the case of GAUCAAUCUGACCUCAGAGCUCGAGAACAUCUUCGGAUGCAGAGGAGGCAGGCUUCGGUGGCGCGAUAGCGCCAACGACCUCAACCUCCAAUGCAUCCCACCACAUGAUGAUGCCUGAAGAGCCUUGGUUUUUUG, the “polymerase ribozyme fitness (log ratio)” value is reported as -2.75. In the case of GAUCAAUCUGCUCUCAGAGCUCGAGAACAUCUUCGGAUGCAGAGGGGGCGGGCUUCGGUGGCGCGAUAGCGCCAACGUCCUCAACCUCCAAUGCAUCCCAACAUAUGAUGAUGCCUGAAGAGCCUUGGUUUUUUG, the “polymerase ribozyme fitness (log ratio)” value is reported as -0.987. For GAUCAAUCUGCCCUCAGAGCUCGAGAACAUCUUCGGAUGCAGAGGAGGCAGGCUUCGGUGGAGCGAUAGCGUCAACGUCCUCAACCUCCAAUGCAUCCCACCACAUGAUGAUGCCUGAAGAGCCUUGGUUUUUUG, the “polymerase ribozyme fitness (log ratio)” value was -0.819. For GAUCAAUCUGCCCUCAGAGCUCGAGAACAUCUUCGGAUGCAGCGGAGGCAGGCUUCGGUGGCGCGAUAGCGCAAACGUCCUCAACCGCCAAUGCAUCCCACCACAUGAUGAUGCCUGAAGAGCCUUGGUUUUUUG, the “polymerase ribozyme fitness (log ratio)” value was -2.3. For GAUCAAUCUGCCCUCAGAGCUCGAGAACAUCUUCGGAUGCAGAGGAGGCAGGCUUGGGUGGCGCGAUAGCGCCAACGUCCUCAACCUCCAAUGCAUCCCACCACAUGAUGAUGCCUGAAGAGCCUUGGUUUUUUG, the “polymerase ribozyme fitness (log ratio)” value was -0.409. For GAUCAAUCUGCCUUCAGAGCUCGAGAACAUCUUUGGAUGCAGAGGAGGCAGGCUUCGGUGGCGCGAUAUCGCCAACGUCCUCAAUCUCCAAUGCAUCCCACCACAUGAUGAUGCCUGAAGAGCCUUGGUUUUUUG, the “polymerase ribozyme fitness (log ratio)” value was -2.76. With GAUCAAUCUGACCUCAGAGCUCGAGAACAUCUUCGGAUGCAGAGGAGGCAGGCUUCGGUGGCGCGAUAGCGCGAUCGUCCUCAACCUCCAAUGCAUCCGACCUCAUGAUGAUGCCUGAAGGGCCUUGGUUUUUUG the “polymerase ribozyme fitness (log ratio)” value was -7.22. For GAUCAAUCUGCCCUCAGAGCUAGAGAACAUCUUCGGAUGCAGAGGAGGCAGGCUUCGGUGGCGCGAUAGCGCCUACAUCCUCAACCUCCAAUGCAUCCCACCACACGAUGAUGACUGAAGAGCCUUGGUUUUUUG, the “polymerase ribozyme fitness (log ratio)” value was -4.34. For GAUCAAUCUGCCCUCAGAGCUCGAGAACAUCUUCGGAUGCAGAGGAGGCAGGCUUGGGUGGCGCGAUAGCGCUAACGUCCUCAACCUCCAAUGCAUCCCACCACAUGAUGAUGCCUGAAGAGCCUUGGUUUUUUG, the “polymerase ribozyme fitness (log ratio)” value was -1.31. In the case of GAUCAAUCUGCCCUUAGAGCUCGAGAACAUCUUCGGAUCCAGAGGAGGCAGGCUUCGGUGGCGCGAUAGCGCCAACGUCCUCAACCUCCAAUGCAUCCCACCACAUGAUGAUGCCUGAAGAGCCUUGGUUUUUUG, the “polymerase ribozyme fitness (log ratio)” value is reported as -2.34. With GAUCAAUCUGCCCUCAGAGCUCGAGAACAUCUUCGGAUGCAGAGGAGGCAGGCUUCGGUGGCGCGAUAGCGACAACGUCCUCAACCUCCAAUGCAUCCCACCACAUGAUGAUGCCUGAAGAGCCUUGGUUUUUUG the “polymerase ribozyme fitness (log ratio)” value was -0.325. With GAUCAAUCUGGACUCAGAGCUCGAGAACAUCUUCGGAUGCAGAGGAGGCUGGCUUGGGUGGCGCGAUAGCGCCAACGUCCUCAACCUCCAAUGCAUCCCACCACAUGAUGAUUCCUGAAGAGCCUUGGUUUUUUG the “polymerase ribozyme fitness (log ratio)” value was -6.33. With GAUCAAUCUGCCUUCAGAGCUCGAGAACAUCUUCGGAUGCAGAGGAGGCAGGCUUCUGUGGCGCGAUAGCGCCAACGUUCUCAACCUCCAAUGCAUCCCCCCACAUGAUGAUGCCUGAAGAGCCUUGGUUUUUUG the “polymerase ribozyme fitness (log ratio)” value was -0.594. In the case of GAUCAAUCUGCCCUCAGAGCUAGAGAACAUCUUCGGAUGCAGAGGAGGCAGGCCUCGGUGGCGCGAUAGCGUCAACGUUCUUAACCUCCAAUGCAUCCCUCCACAUGAUGAUGCCUGAAGAGCCUUGGUUUUUUG, the “polymerase ribozyme fitness (log ratio)” value is reported as -6.11. With GAUCAAUCUGCCCUCAGAGCUCGAGAACAUCUUCGGAUGCAGAGGAGGCAGGCUUCGGUGGCGCGAUAGCGCCAACGUCCUCAACCUCCAUUCCAUCCCACCACAUGAUGAUCCCUGAAGAGCCUUGGUUUUUUU the “polymerase ribozyme fitness (log ratio)” value was -3.84. With GAUCAAUCUGCCCUCAGAGCUCGAGAACAUCUUCGGAUGCAGAGGAGGCAGGCUUUGGUGGCGCGAUAGCGCCAACGUCCUCAACCUCCAAUGCAUCCCACCACAUGAUGAUGCUUGAAGAGCCUUUGUUUUUUG the “polymerase ribozyme fitness (log ratio)” value was -3.57. For GAUCAAUCUGCCUUCAGAGCUCGAGAACAUCUUCGGAUGCGGAGGAGGCAGGCUUCGGUGUCGCGAUAGCGCCAACGUACUCAAUCUCCAAUGCAUCCCACCACAUGAUGAUGCCUGAAUAGCCUUCGUUUUUUG, the “polymerase ribozyme fitness (log ratio)” value was -3.54. With GAUCAAUCUGCCCUCAGAGCUCGAGAACAUCUUCGGAUGCAGAGGAGGCAGGCUUCGGUGGCGCGAUAGCGCCAACGUCCUCUACCUCCAAUGCAUCCCACCACAUGAUGAUGCCUGAAGAGCCUUGGUUUUUUG the “polymerase ribozyme fitness (log ratio)” value was -0.257. In the case of GAUCAAUCUGCCCUCAGAGCUCGAGAACAUCUUCGGAUGCAGUGGAGGCAGGCUUGGGUGGCGCGAUAGCGCCAACGUCCACAACCUCCAAUGCUUCCCACCACAUGAUGGUGCCUGAAGAACCUUGGUUUUUUG, the “polymerase ribozyme fitness (log ratio)” value is reported as -5.71. For GAUCAAUCUGCCCUCAGAGCUCGAGAACAUCUUCGGAUGCAGAGGAGGCAGGCUUCGGUGGUGCGAUAGCGCCUACGUCCUCAACCUCGAAUGCAUCCCACCACAUGAUGAUGCCUGAAGAGCCUUGGUUUUUUG, the “polymerase ribozyme fitness (log ratio)” value was -2.26. With GAUCAAUCUGUCGUCAGAGCUCGAGAACAUCUUCGGAUGCAGAGGAGGCAGGCUUCGGUGGCCCGAUAGCGCCAACGUCCUCAACCUCCAAUGCAUCCCACCACAUGAUGAUGCCCGAAGAGCCUUGGUUUUUUG the “polymerase ribozyme fitness (log ratio)” value was -4.43. For GAUCAAUCUGCCCUCAGAGCUCGAGAACAUCUUCGGAUGGAGAGGAGGCAGGCUUCGGUGGCCCGAUAGCGCCAACGUCCUCAACCUCCAAUGCAUCCCACCACAUGAUGAUGCUUGAAGAGCCUUGGUUUUUUG, the “polymerase ribozyme fitness (log ratio)” value was -2.66. With GAUCAAUCUGCCCUCAGAGCUCGAGAACAUCUUCGGAUGCAGAGGAGGCAGGCUUCGGUGGCGCGAUAGCGGCAACGUCCUCAACCUCCUAUGCAUCCCACCACAAGAUGAUGCCUGAAGAGCCUUGGUUUUUUG the “polymerase ribozyme fitness (log ratio)” value was -1.94. For GAUCAAUCUGCCCUCAGAGCUCGAGAACAUCUUCGGAUGCAGAGGAGGCAGGCUUCGGUGGCGCGAUAGCGCCAACGUCCUCAACCUCCAAUGCAUCCCACCACAUGAUGAUGCCUGAGGAGCCUUGGUUUUUUG, the “polymerase ribozyme fitness (log ratio)” value was 0.367.
